# B1: CsiD (carbon starvation induced protein D), glutarate hydroxylase (enzyme, Escherichia coli, UniProt P76621 1-325, looked up)
# chain: MNALTAVQNNAVDSGQDYSGFTLTPSAQSPRLLELTFTEQTTKQFLEQVAEWPVQALEYKSFLRFRVAKILDDLCANQLQPLLLKTLLNRAEGALLINAVGVDDVKQADEMVKLATAVAHLIGRSNFDAMSGQYYARFVVKNVDNSDSYLRQPHRVMELHNDGTYVEEITDYVLMMKIDEQNMQGGNSLLLHLDDWEHLDNYFRHPLARRPMRFAAPPSKNVSKDVFHPVFDVDQQGRPVMRYIDQFVQPKDFEEGVWLSELSDAIETSKGILSVPVPVGKFLLINNLFWLHGRDRFTPHPDLRRELMRQRGYFAYASNHYQTHQ
# notes: CsiD of Escherichia coli, ORF amplified from E. coli BW25113 and inserted into pET28a; crystals were apo or held glutarate, succinate or N-oxalylglycine; also called glutarate-2-hydroxylase; G-2-H; source: E. coli BL21 (DE3), purified (Ni-NTA)
# Target: the molecule itself
# Assay: crystal structure; CsiD at 13 mg/mL, sitting drop vapour diffusion, 18 °C; apo and with glutarate, succinate or N-oxalylglycine; symmetry P42(1)2, two copies in the asymmetric unit, tetramer generated by crystallographic symmetry
protein,measurement,value
B1,stoichiometry N,4

# From publication PMC6265302, “Widespread bacterial lysine degradation proceeding via glutarate and L-2-hydroxyglutarate” (Nature Communications, 2018)
